Values quoted from earlier work, collected in paper PMC3208733.
Values joined by “and” are separate entries in the source; they are usually repeats but may differ in a detail not shown here. Equal entries are not always repeated.

Target: scaffolding protein (Salmonella phage P22) (UniProt P26748)

Substance: scaffolding protein (from UniProt P26748)
- Kd: 78 µM and 170 µM
